Where “and” joins values, the source holds several entries; their conditions need not be identical. Identical values can stand only once. FL = fluorescein (N-terminal fluorescent label)
What was measured:
Test in all cases: FP
[1] = target: T1, FBXO31/SKP1 complex (wild type) (human, UniProt Q5XUX0)
FBXO31 D334N/SKP1 = FBXO31 D334N/SKP1 (human, UniProt Q5XUX0)
[2] = target: T1, FBXO31/SKP1 complex (wild type); remark: listed apart in the source

T1 sequence (Q5XUX0 whole entry, chain 1 of 2): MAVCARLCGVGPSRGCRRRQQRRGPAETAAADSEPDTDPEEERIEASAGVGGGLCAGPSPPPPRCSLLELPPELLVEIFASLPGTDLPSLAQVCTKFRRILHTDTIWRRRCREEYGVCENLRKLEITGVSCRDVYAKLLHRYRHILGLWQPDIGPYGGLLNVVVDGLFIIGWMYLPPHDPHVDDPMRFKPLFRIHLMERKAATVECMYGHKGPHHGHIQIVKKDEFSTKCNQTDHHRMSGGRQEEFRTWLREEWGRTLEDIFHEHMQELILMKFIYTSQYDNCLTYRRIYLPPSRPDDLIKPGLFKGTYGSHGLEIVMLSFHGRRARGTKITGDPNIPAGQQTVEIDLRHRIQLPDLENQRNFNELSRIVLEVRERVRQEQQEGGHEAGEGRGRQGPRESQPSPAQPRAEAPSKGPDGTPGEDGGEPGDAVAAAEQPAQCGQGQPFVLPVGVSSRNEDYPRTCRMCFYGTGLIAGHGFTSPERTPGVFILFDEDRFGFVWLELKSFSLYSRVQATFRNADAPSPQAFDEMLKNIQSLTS
T1 sequence (chain, as listed by the source, chain 2 of 2): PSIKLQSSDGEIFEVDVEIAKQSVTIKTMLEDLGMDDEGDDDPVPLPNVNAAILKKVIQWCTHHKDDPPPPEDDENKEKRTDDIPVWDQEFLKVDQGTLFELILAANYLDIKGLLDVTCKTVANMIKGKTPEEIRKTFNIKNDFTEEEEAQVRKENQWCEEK
Chain of FBXO31 D334N/SKP1 (Q5XUX0 whole entry D334N, chain 1 of 2): as the sequence (Q5XUX0 whole entry, chain 1 of 2) above, with D334N counted along it
Chain of FBXO31 D334N/SKP1 (chain, as listed by the source D334N, chain 2 of 2): as the sequence (chain, as listed by the source, chain 2 of 2) above

| Binder | Kd [1] | binding result (FBXO31 D334N/SKP1) | binding result [2] |
| --- | --- | --- | --- |
| {FL}-KAATPTDVRDVDI-NH2 [FL-CycD1-NH2] | 59 nM |  |  |
| {FL}-KEEDEKGSRASDDFRDLR-NH2 [FL-Pep2-NH2 (amidated model/screening peptide)] | 22 nM and 16 nM |  |  |

The next lines start with the values.

| Kd [1] | binding result (FBXO31 D334N/SKP1) | binding result [2] | Binder |
| --- | --- | --- | --- |
|  | no binding | no binding | {FL}-KAATPTDVRDVDI-OH [FL-CycD1-OH] |
|  |  | no binding | {FL}-KEEDEKGSRASDDFRDLR-OH [FL-Pep2-OH (non-amidated model peptide)] |
